Laboratory results taken from patent publication US20160109449A1 (JULIUS MAXIMILIANS UNIVERSITAET WUERZBURG, published 2016).

Assays:
Assay in all cases: peptide array on glass slide, fluorescent secondary antibody
[1] = biological target: IsaA oligopeptide SEQ ID NO: 56 (Staphylococcus aureus)
[2] = biological target: IsaA oligopeptide SEQ ID NO: 44 (Staphylococcus aureus)
[3] = biological target: IsaA oligopeptide SEQ ID NO: 48 (Staphylococcus aureus)
[4] = biological target: IsaA oligopeptide SEQ ID NO: 42 (Staphylococcus aureus)
[5] = biological target: IsaA oligopeptide SEQ ID NO: 54 (Staphylococcus aureus)
[6] = biological target: IsaA oligopeptide SEQ ID NO: 51 (Staphylococcus aureus)
[7] = biological target: IsaA oligopeptide SEQ ID NO: 33 (Staphylococcus aureus)

Substance: control antibodies (peptide array) (antibody)
- Binding (fluorescence intensity) [1]: -17.3
- Binding (fluorescence intensity) [2]: 114
- Binding (fluorescence intensity) [3]: 398
- Binding (fluorescence intensity) [4]: 35.7
- Binding (fluorescence intensity) [5]: -51.7
- Binding (fluorescence intensity) [6]: 58
- Binding (fluorescence intensity) [7]: -0.7
